According to the DeepSol protein solubility set:

Assay: soluble on expression in E. coli; label from the status in PepcDB or PDB records

Row | Sequence | soluble on expression in E. coli
1 | MNYLFKNGRYMNEEGKIVATDLLVQDGKIAKVAENITADNAEVIDVNGKLIAPGLVDVHVHLREPGGEHKETIETGTLAAAKGGFTTICAMPNTRPVPDCREHMEDLQNRIKEKAHVNVLPYGAITVRQAGSEMTDFETLKELGAFAFTDDGVGVQDASMMLAAMKRAAKLNMAVVAHCEENTLINKGCVHEGKFSEKHGLNGIPSVCESVHIARDILLAEAADCHYHVCHVSTKGSVRVIRDAKRAGIKVTAEVTPHHLVLCEDDIPSADPNFKMNPPLRGKEDHEALIEGLLDGTIDMIATDHAPHTAEEKAQGIERAPFGITGFETAFPLLYTNLVKKGIITLEQLIQFLTEKPADTFGLEAGRLKEGRTADITIIDLEQEEEIDPTTFLSKGKNTPFAGWKCQGWPVMTIVGGKIAWQKESALV | not soluble
2 | MSELIRVPDIGNGEGEVIELLVKPGDKVEADQSLLTLESDKASMEIPSPKAGVVKSIKAKVGDTLKEGDEILELEVEGGEQPAEAKAEAAPAQPEAPKAEAPAPAPSESKPAAPAAASVQDIKVPDIGSAGKANVIEVMVKAGDTVEADQSLITLESDKASMEIPSPASGVVESVSIKVGDEVGTGDLILKLKVEGAA | not soluble
3 | MYNSMDEVPVSLHASIDTGDGEFDMNALISNNAHILFIVLDSLRYDIALQEQTAGNTPNLNHYGQWTKCEAAGNFTWPSHHAMFSGFMPKPIDDTVNQTMLFFPKDIGLGRKGPKNAFAFDDATWIKSLENKGYQTICIGGVSFFNNRSGMGKVFPSMFKESYWHPRFACTVKESMDNQIHYIQKIMAERAGSQPVMMYINIDTIHYPNHFYVEGAAPGDTVETHAAALRYIDARIDGLLNIFRQTGGATFVIVCSDHGTCYGEDGKYFHSFNHPIVNTVPYMHFLLSGNHLEHHHHHH | soluble
4 | MSQTEPPEDLMQYEAMAQDALRGVVKAALKKAAAPGGLPEPHHLYITFKTKAAGVSGPQDLLSKYPDEMTIVLQHQYWDLAPGETFFSVTLKFGGQPKRLSVPYAALTRFYDPSVQFALQFSAPEIIEDEPEPDPEPEDKANQGASGDEGPKIVSLDQFRKKLEHHHHHH | soluble
5 | MSLNALIEELKRLLKECATKKIVVIGECVRDVFVNTQRLSGPSDYQYTITKQLQRREFPGGAYPVARDLSNFVSKVHFVTCSTHEFPTNLERMDVIPISRERISKTRFFSGHNSNIFHYHCVFSEEITLSLTPLQELASVFSEADLVIVLDYGHGLLNSDVRKSISQNARFVALNCQANEDKYPFHQIWKYESTDLLLLNKVEAEINLLKTGVPVQELALRLHSKFKSTYTIVTDAEHGAVIQHDYRAYSSPAMSSCVVDAVGCSDIMLGFAALAAQNGKSAEEILYFASVAAGAKTMINVHERPLSREDLYEIALGVQNEGHHHHHH | not soluble
6 | MSEYLAAADYLPHSAPMVLVDEVIHVDDEHAHCRVAVSREGILAPFLNAQGHLPAWFGIEIIAQTIGVWSGWHGRQSLGLQEKPRPGMLLGGRGYHCQQAIFPAGSLLDVTVMLVMRDEKIGSFEGEIAIDGEKYASGRLNTYQPDDRELNILLEQGKPL | not soluble
7 | MSLKIVLTGSIGRINQTLVPKLTHAGHEVTVISHQATRSSLIKVFRATPAIGRLDDEAFLTKTFMGADVVYLMVTGIAASDDLYTAAKRQADIYAAAIKAAGVKRVVNLSSVGADLGPEVGALYMYHIIEQTLTTALPDVDLTFIRPTAMYYNLLSSVPTVKKSHRIYTNANLAVKNVWVAPVDVTTVLIKALTEPTPGQTVTYVASDEKTYLEVASALSQALKMPDLRVSQVPDEVMQDHLVTAGTPVAFAREYVKTVAYQRDHDFYADYRAHQPRLGDVKLADFAEGHHHHHH | not soluble
8 | MSYYHHHHHHLESTSLYKKAGSENLYFQGARDQGADEAREYEPGQPGMYELEFPAPQLSSSDGRGPVLVHALEGFSDAGHAIRLAAAHLKAALDTELVASFAIDELLDYRSRRPLMTFKTDHFTHSDDPELSLYALRDSIGTPFLLLAGLEPDLKWERFITAVRLLAERLGVRQTIGLGTVPMAVPHTRPITMTAHSNNRELISDFQPSISEIQVPGSASNLLEYRMAQHGHEVVGFTVHVPHYLTQTDYPAAAQALLEQVAKTGSLQLPLAVLAEAAAEVQAKIDEQVQASAEVAQVVAALERQYDAFIDAQENRSLLTRDEDLPSGDELGAEFERFLAQQAEKKSDDDP | soluble
9 | MGSDKIHHHHHHMTRSVKRVAAIHDLSGFGRASLTAIIPIMSYMGIQVCPMPTAVLSTHTTDFHEYSFVDLTDSMQDFMNHWKKINLEFDAIYTGFLGSPRQVKIISDFVKEFSSDSTLVLIDPVMGDEGELYQTMNSEIVRSMRELIKSADIITPNFTEAAYLLDKDYNLELNEETIKEWILELANMGPDIVIMTSVPENKDKSTISVIAYEKKLNKFWKITSEYIPVSYPGTGDSFASAILGRILKGDNLPQAVGRGMQFITSAIKESYGFDYPTREGILIEKSLEVLNLPFMNGNYKLI | not soluble
10 | MRYCQFEGCSNTTEKGAYCSEHARKSRKKKKPINVYHHDNKSFYRTKEWQDVADFVYEREGGCCQRCGRFVFGRQAHRHHVIPIKKNEMLKLDPNNIRLLCPKCHVIEENEADEKKVFPSYFKK | not soluble
11 | MSLKKIIITGALGQIGTELVIKCRERYGTENVLATDIRKPEPHSPVKNGPFEILDVTDRNRLFETVRYFNADTLMHMAALLSATAEKKPLVAWDLNMGGLINTLEAARRYQLKYFTPSSIGAFGISTPKVNTPQLTIQQPTTMYGINKVTGELLCQYYYVKFGVDTRSVRFPGLISHVKEPGGGITDYAVDMYFKAVRKGHYTSYINRYTYMDMMYMEDAIDAIIKLMEEDSVKLKTRNGYNLSAMSIEPEMLKQAIQVYYPDFTLDYDIDLERQDIALSWPDSIDTSCAQEEWGFDPKYDLPTMTKVMLEAIEKKQKEEGHHHHHH | soluble
12 | MSDNNTLRMAEMLDKQNSRQHDFMKLMMEMNNSARLSDQARDDRNAIRNENNLKEVFNKLIEAQKEESPIDISIKIRR | not soluble
13 | GPLGSMDSPPEGYRRNVGICLMNNDKKIFAASRLDIPDAWQMPQGGIDEGEDPRNAAIRELREETGVTSAEVIAEVPYWLTYDFPPKVREKLNIQWGSDWKGQAQKWFLFKFTGQDQEINLLGDGSEKPEFGEWSWVTPEQLIDLTVEFKKPVYKEVLSVFAPHL | soluble
14 | MIITTTPTVENRQIIEYKGLVFGEVVAGANIIRDFFASITDMIGGRSGVYEDKLNVARQEALVELQKQARNIGANAVIGVSIQYQSMGKKDMFIIVATGTAVVIGLEHHHHHH | not soluble
15 | MGSDKIHHHHHHMSQQTGEASKIKGRFRNSHKVYGAGLGDLVGIIKAYLGAKRSAPSPKSAVPLQPITPAELARPQARLYRLGHSTVLMYLDGKWLLTDPVFSERASPFQWAGPKRFHQSPIAIEALPDIDGLILSHDHYDHLDTAAIKALAARVKHFYMPLGVGKRLIRLGIDKARITELDWWQSVQLGTIELTATPAQHFSGRGLFDRDATLWAGWAIHGEQARVFFSGDSGYFPGFAEIGERLGPFDVTLMETGAYNELWRDIHMMPEESLQAHLDVKGQLMVPIHNGTFDLALHDWFEPLERIRALAWDRSVKIATPIFGEALSLTLPGSGSDWWAQESAISTGVDAREKGRAPAAESSMVGIAES | not soluble
16 | MGRVVLWLLLLALLPAYAQETYDWIVVLGAAQYGGRPSPALERRLQAALHLFREGRGRRIAVAGGKAPEDLYSEGEVGCRYLAARGVPEEALFCETRSRSTYENLLFLKPHLEGRLLLVTDAPHLPRALFLARLLGLEAEGYPVPGNYPLGYWAKEALYRLWLYLGLRPQGVFSSRFNASRAAALEHHHHHH | not soluble
17 | MGSDKIHHHHHHYEKIYDVNHVCYYTLTSVELQKFVKTAEIITPLNADNKTTITKDTILVGNPEENPLTKKYIGFFKIKINKTFPGKNKGIIEKQIINGHTVILLAGSDIQGTYASIITFANLNDIPENPIICETSNKVNIYSTSLNSEYFRDFIEKNILTPKEIEKVKSLSYKLKGKDKKATIENIAKWVANNIKYDYDKCKKIESGKFSWDEYNTPSETVKTKKGVCLDYATLTSALLLNDNIIPYMLDVALYNTSSLKISSYHASVAVKIDNTYFVIDQQPYLIPINEYTAQTFEDNLRIASIVMFRVVKERDGIKLIKEKEVPGIAIYGDLINLLEMRFNN | not soluble
18 | MSAMNARQGILSLALKDKPALYSAYMPFVKGGGIFVPTPKRYMLGDEVFLLLTLPDSSERLPVAGKVIWTTPAGAQGNRAAGIGVQFPDGPEGEAVRNKIETLLAGLTTSDKPTHTM | soluble
